These results are taken from publication PMC11818005, “Elucidation of the key flavonol biosynthetic pathway in golden Camellia and its application in genetic modification of tomato fruit metabolism” (Horticulture Research, 2024).

Common to all, as to experiment: UPLC-UV of flavonol product, initial kinetics
Conditions in all cases: 100 mM Tricine pH 7.5, 0.1 mM FeSO4, 10 mM ascorbate, 10 mM 2-oxoglutarate, 28°C

Substrate in data set [1]: O=C1c2c(O)cc(O)cc2O[C@H](c2ccc(O)cc2)[C@H]1O
In kind it is biochemical, Arabidopsis thaliana. The text has this:
(§1) UPLC-UV of flavonol product, initial kinetics on AtFLS1

Substrate in data set [2]: O=C1c2c(O)cc(O)cc2O[C@H](c2ccc(O)c(O)c2)[C@H]1O
In kind it is biochemical, Arabidopsis thaliana.
Description: as §1

Substrate in data set [3]: O=C1c2c(O)cc(O)cc2O[C@H](c2ccc(O)cc2)[C@H]1O
Format: biochemical, Camellia nitidissima. An excerpt:
(§2) UPLC-UV of flavonol product, initial kinetics on CnFLS1

Substrate in data set [4]: O=C1c2c(O)cc(O)cc2O[C@H](c2ccc(O)c(O)c2)[C@H]1O
In kind it is biochemical, Camellia nitidissima.
Description: as §2

B1: AtFLS1 (Arabidopsis thaliana) (protein)
chain: MEVERVQDISSSSLLTEAIPLEFIRSEKEQPAITTFRGPTPAIPVVDLSDPDEESVRRAVVKASEEWGLFQVVNHGIPTELIRRLQDVGRKFFELPSSEKESVAKPEDSKDIEGYGTKLQKDPEGKKAWVDHLFHRIWPPSCVNYRFWPKNPPEYREVNEEYAVHVKKLSETLLGILSDGLGLKRDALKEGLGGEMAEYMMKINYYPPCPRPDLALGVPAHTDLSGITLLVPNEVPGLQVFKDDHWFDAEYIPSAVIVHIGDQILRLSNGRYKNVLHRTTVDKEKTRMSWPVFLEPPREKIVGPLPELTGDDNPPKFKPFAFKDYSYRKLNKLPLD
notes: cloned for comparison with CnFLS1 (pET28b, E. coli Rosetta (DE3), Ni-NTA purified)
What is called Km is the concentration of substrate that gives half-maximal velocity. The term kcat denotes the maximal rate divided by the concentration of active sites. As usually defined, the kcat/Km is the second-order rate constant that governs catalysis at low substrate concentration. Take B1: in data set [1], the Km worked out at 95.01 µM, the kcat came out at 0.11 s⁻¹ and the catalytic efficiency (kcat/Km) was 1180 M⁻¹ s⁻¹. In data set [2], the Km was determined as 29.89 µM, the kcat was 0.02 s⁻¹ and the kcat/Km is 794 M⁻¹ s⁻¹.

B2: CnFLS1 (Camellia nitidissima) (protein)
chain: MELERVQVIASLSKCIDTIPAEYIRSENEQPAITTIQGKVLEVPVIDLSNDSDDQNIVQMVAEACRDWGIFQVVNHGIPDEVIGNLQRVGKDFFELPQEEKEVYAKPPESKSVEGYGTKLQKEVEGKKGWVDHLFHKIWPPSAINYKFWPKNPPSYREANEVYAERLRAVADKLFRWLSLGLGLEGHEVKEAVGGDDLIYLMKINYYPPCPRPDLALGVVAHTDMSTLTILVPNEVPGLQVFKDDHWYEVKYIPNALIVHIGDQIEIVSNGKYKAVFHRSTVNKETTRMSWPVFIEPSPEVEVGPHPKLIDDENPPKYKTKKYEDYMYCKLNKLPQ
In the case of B2, in data set [3], the Km came out at 60.63 µM, the kcat came to 0.08 s⁻¹ and the kcat/Km was found to be 1300 M⁻¹ s⁻¹. For the same protein, in data set [4], the Michaelis constant (Km) is 18.68 µM, the kcat was determined as 0.02 s⁻¹ and the catalytic efficiency (kcat/Km) amounted to 1320 M⁻¹ s⁻¹.
